From patent US20210261685A1 (Alector, published 2021)

Assays:
[1] = target: T1, cyno MerTK extracellular domain (ECD), recombinant (cynomolgus monkey, UniProt Q12866 21-505 (human entry)); assay: SPR, Carterra LSA
T1 construct: also called cynomolgus MerTK; not shown: polyHis tag or TEVS/Thrombin/murine IgG2a Fc tag
T1 chain: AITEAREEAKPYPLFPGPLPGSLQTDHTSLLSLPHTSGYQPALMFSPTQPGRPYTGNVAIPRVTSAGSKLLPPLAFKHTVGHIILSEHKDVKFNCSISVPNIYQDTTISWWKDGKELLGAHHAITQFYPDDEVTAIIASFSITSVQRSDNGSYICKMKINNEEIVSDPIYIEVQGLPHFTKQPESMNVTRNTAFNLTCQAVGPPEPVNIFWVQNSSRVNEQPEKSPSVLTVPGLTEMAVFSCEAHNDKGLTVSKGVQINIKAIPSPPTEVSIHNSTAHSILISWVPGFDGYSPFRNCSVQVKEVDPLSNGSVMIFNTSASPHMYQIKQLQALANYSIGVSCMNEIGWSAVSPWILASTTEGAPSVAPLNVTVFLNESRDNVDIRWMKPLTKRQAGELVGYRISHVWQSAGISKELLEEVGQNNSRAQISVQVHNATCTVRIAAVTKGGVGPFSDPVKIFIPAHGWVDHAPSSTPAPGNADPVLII

[2] = target: T2, Recombinant human MerTK human Fc Chimera protein (R&D systems, Cat #391-MR-100) (human, UniProt Q12866 26-499, limits assumed); assay: competition ELISA, His-ProS on captured MerTK-Fc
T2 construct: Bought; also called recombinant human MerTK protein; MerTK-Fc
T2 sequence: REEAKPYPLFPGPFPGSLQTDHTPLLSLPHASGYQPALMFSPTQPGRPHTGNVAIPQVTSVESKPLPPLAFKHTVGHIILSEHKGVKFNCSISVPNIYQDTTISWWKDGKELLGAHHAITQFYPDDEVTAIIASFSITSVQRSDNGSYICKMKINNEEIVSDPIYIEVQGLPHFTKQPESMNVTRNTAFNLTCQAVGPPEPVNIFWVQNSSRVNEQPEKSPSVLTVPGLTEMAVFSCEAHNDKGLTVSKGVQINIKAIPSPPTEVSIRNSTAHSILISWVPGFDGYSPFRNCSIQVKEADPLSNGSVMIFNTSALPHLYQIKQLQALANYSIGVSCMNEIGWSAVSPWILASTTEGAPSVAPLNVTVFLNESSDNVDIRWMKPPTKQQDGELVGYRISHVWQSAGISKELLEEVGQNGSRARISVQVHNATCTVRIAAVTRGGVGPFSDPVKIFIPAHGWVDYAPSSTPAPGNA
Description: Rabbit anti-human IgG polyclonal antibody (Jackson ImmunoResearch, Cat #309-005-008) was captured to a high-protein binding plate at 2 μg/ml 4° C. overnight. After washing with 0.05% Tween20 in PBS three times, 5% BSA in PBS was added for 1 hour. Recombinant human MerTK human Fc Chimera protein (R&D systems, Cat #391-MR-100) was added at 2 μg/ml for 1 hour and the plates were then washed. Anti-MerTK antibodies were titrated to final concentration range of between 66.6 nM to 4 pM and then 40 μl of serially diluted antibody and 40 μl of His tag-conjugated recombinant Gas6 protein (R&D systems, Cat #885-GSB-050) at 3 μg/ml or His tag-conjugated recombinant ProS protein (R&D systems, Cat #9489-PS-100) at 20 μg/ml. After a further incubation for 1 hour, plates were washed and incubated for 1 hour with HRP-conjugated anti-6×His tag antibody (Abcam, Cat #ab1187). Plates were then washed and an HRP substrate (TMB) was used to develop the plates. After sufficient color change was observed, the reaction was stopped by adding 50 μl 2N H₂SO₄ and the OD was measured using a spectrophotometer (BioTek).
From these experiments, IC50 values [nM] were determined using OD450 values obtained from the dose-response curves analyzed with Prism software. Table 14 and Table 15 show IC50 values determined for anti-MerTK antibody blocking of Gas6 ligand binding and ProS ligand binding to MerTK. […] Dashes indicate lack of significant blocking; “n.a.” indicates data not available.

[3] = target: T3, human MerTK endogenously expressed on cells (SK-MEL-5 cells; human macrophages) (human, UniProt Q12866 21-999); assay: cell-based or functional assay
T3 sequence: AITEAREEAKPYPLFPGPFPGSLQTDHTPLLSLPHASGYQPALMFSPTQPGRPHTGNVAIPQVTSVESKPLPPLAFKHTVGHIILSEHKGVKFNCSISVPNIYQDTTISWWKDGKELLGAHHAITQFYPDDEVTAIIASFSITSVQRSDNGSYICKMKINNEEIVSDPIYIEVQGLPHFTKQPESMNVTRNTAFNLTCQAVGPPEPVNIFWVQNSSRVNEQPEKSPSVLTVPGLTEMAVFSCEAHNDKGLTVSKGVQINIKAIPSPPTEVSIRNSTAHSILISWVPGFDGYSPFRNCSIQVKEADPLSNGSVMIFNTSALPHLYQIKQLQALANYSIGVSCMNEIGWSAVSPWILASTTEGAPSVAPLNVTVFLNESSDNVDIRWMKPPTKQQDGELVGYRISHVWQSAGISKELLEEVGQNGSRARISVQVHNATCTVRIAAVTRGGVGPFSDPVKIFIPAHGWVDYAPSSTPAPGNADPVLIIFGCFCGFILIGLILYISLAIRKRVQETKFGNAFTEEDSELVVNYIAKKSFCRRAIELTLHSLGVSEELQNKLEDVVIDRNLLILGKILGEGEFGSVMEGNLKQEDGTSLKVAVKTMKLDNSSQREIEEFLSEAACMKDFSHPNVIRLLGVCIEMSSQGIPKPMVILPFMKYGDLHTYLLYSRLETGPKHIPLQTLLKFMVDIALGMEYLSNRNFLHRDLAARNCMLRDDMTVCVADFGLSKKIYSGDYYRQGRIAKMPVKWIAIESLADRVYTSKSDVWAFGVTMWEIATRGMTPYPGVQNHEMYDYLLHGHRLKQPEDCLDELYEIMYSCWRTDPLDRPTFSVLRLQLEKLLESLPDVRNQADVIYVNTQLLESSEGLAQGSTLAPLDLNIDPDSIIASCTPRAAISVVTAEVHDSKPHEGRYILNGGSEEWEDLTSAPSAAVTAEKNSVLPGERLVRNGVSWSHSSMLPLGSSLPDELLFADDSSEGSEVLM

B1: MTK-09 (antibody, human IgG1, V domains shown)
VH: QVQLQQSGAELVRPGASVKISCKAFGYTFTNHHIKWVKQRPGQGLDWIGYIDPYNDYTTYNQNFKGKATLTVDKSSSTAYMELSSLTSEDSAVYYCARRAYDGYYVDWYFDVWGAGTTVTVSS
VL: DIVMTQSHKFMSTSVGDRVSITCKASQDVTTSVAWYHQKPGQSPELLIYSASYRYTGVPDRFTGSGSGTDFTFTISSVQAEDLAIYYCQQHYSTPLTFGSGTKLQLK
Question: Does B1 bind [1]?
Answer: binds

Question: What about the IC50 [2] of the same binder?
Answer: 7.84 nM

Question: What about the “Gas6-mediated pAKT activity, average IC50, human M2c macrophages” value [3] of the same binder?
Answer: 1.67 nM
